Measurements from patent publication US20240010751A1 (EXELIXIS, published 2024).

Columns and labels:
[1] = target: PD-L1 on cells (target cells of the assays) (Homo sapiens (Human), UniProt Q9NZQ7 19-290); test: cell-based or functional assay
[2] = target: T1, CD47 on cells (target cells of the assays) (Homo sapiens (Human), UniProt Q08722 19-323); test: cell-based or functional assay
[3] = target: T1, CD47 on cells (target cells of the …); test: cell-based or functional assay; remark: listed apart in the source
[4] = target: T2, CD47 and PD-L1 together on the surface of the same cells (CD47 PD-L1 TCA CHO cells); PD-L1 MDA-MB-231 cells; … (Homo sapiens (Human), UniProt Q08722 19-323; Q9NZQ7 19-290); test: flow cytometry on Jeko-PD-L1 cells (both targets on the cells); BC44 format
[5] = target: T2, CD47 and PD-L1 together on the surface …; test: flow cytometry on PD-L1 MDA-MB-231 cells (both targets on the cells); BC44 format
[6] = target: T3, biotinylated human PD-L1 (extracellular domain, Acro Biosystems) (human, UniProt Q9NZQ7 19-238, biotinylated); test: Octet in-tandem cross-competition, 100 nM biotinylated antigen on a streptavidin sensor
T3 construct: Bought protein; also called biotinylated antigen; biotinylated human PD-L1-His Avitag; not shown: His Avitag or His tag
T3 sequence (Q9NZQ7 19-238): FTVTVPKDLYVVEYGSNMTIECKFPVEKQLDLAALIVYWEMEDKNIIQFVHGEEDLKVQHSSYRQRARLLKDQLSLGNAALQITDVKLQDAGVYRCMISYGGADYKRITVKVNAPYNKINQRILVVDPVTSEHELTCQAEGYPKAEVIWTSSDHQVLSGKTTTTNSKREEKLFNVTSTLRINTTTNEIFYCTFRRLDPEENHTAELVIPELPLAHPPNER

Chain of PD-L1 on cells (target cells of the assays) (Q9NZQ7 19-290 limits assumed): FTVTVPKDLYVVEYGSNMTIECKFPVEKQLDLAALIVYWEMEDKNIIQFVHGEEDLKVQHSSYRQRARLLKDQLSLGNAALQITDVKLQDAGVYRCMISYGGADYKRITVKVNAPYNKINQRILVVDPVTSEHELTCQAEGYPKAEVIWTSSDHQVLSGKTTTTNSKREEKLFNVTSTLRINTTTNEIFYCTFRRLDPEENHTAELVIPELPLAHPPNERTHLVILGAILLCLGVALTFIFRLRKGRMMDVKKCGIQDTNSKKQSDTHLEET

Row | Binder | IC50, PD-1/PD-L1 Inhibition Assay in Jeko-PD-L1 Cells [1] | IC50, PD-1/PD-L1 Inhibition Assay in MDA-MB-231 PD-L1 Cells [1] | IC50, CD47/SIRPα Inhibition Assay, JeKo-PD-L1 Cells [2] | IC50, CD47/SIRPα Inhibition Assay in PD-L1 MDA-MB-231 Cells [3] | EC50 [4] | EC50 [5] | binding result [6]
1 | C40 x P24 bispecific antibody in a BC44 format (bispecific antibody, B-Body of four polypeptide chains, BC44 format; CD47 arm from C40, PD-L1 arm from P24; also called C40 × P24) chain 1: not shown chain 2: EVQLVESGGGLVQPGGSLRLSCAASGFTFSYYYIHWVRQAPGKGLEWVAWIDPYGHSTTYADSVKGRFTISADTSKNTAYLQMNSLRAEDTAVYYCARGGRGAMDYWGQGTLVTVSSASPREPQVYTLPPCRDELTKNQVSLTCLVKGFYPSDIAVEWESNGQPENNYKTTPPVLDSDGSFFLYSKLTVDKSRWQQGNVFSCSVMHEALHNHYTQKSLSLSPGK chain 3: DIQMTQSPSSLSASVGDRVTITCRASQSVSSAVAWYQQKPGKAPKLLIYSASSLYSGVPSRFSGSRSGTDFTLTISSLQPEDFATYYCQQVSYSPYTFGQGTKVEIKRTVAAPSVFIFPPSDEQLKSGTASVVCLLNNFYPREAKVQWKVDNALQSGNSQESVTEQDSKDSTYSLSSTLTLSKADYEKHKVYACEVTHQGLSSPVTKSFNRGECDKTHTCPPCPAPELLGGPSVFLFPPKPKDTLMISRTPEVTCVVVDVSHEDPEVKFNWYVDGVEVHNAKTKPREEQYNSTYRVVSVLTVLHQDWLNGKEYKCKVSNKALPAPIEKTISKAKGQPREPQVCTLPPSREEMTKNQVSLSCAVKGFYPSDIAVEWESNGQPENNYKTTPPVLDSDGSFFLVSKLTVDKSRWQQGNVFSCSVMHEALHNHYTQKSLSLSPGK chain 4: EVQLVESGGGLVQPGGSLRLSCAASGFTFDQYYIHWVRQAPGKGLEWVAEIYPAGSYTYYADSVKGRFTISADTSKNTAYLQMNSLRAEDTAVYYCARGPYSVRYALDYWGQGTLVTVSSASTKGPSVFPLAPSSKSTSGGTAALGCLVKDYFPEPVTVSWNSGALTSGVHTFPAVLQSSGLYSLSSVVTVPSSSLGTQTYICNVNHKPSNTKVDKKVEPPKSC | 0.275 nM | 1.3 nM | 1.26 nM | 0.112 nM | 0.703 nM | 3.1 nM | –
2 | C40 x P24 (silent Fc) bispecific antibody in a BC44 format (bispecific antibody) chain 1: not shown chain 2: EVQLVESGGGLVQPGGSLRLSCAASGFTFSYYYIHWVRQAPGKGLEWVAWIDPYGHSTTYADSVKGRFTISADTSKNTAYLQMNSLRAEDTAVYYCARGGRGAMDYWGQGTLVTVSSASPREPQVYTLPPCRDELTKNQVSLTCLVKGFYPSDIAVEWESNGQPENNYKTTPPVLDSDGSFFLYSKLTVDKSRWQQGNVFSCSVMHEALHNHYTQKSLSLSPGK chain 3: DIQMTQSPSSLSASVGDRVTITCRASQSVSSAVAWYQQKPGKAPKLLIYSASSLYSGVPSRFSGSRSGTDFTLTISSLQPEDFATYYCQQVSYSPYTFGQGTKVEIKRTVAAPSVFIFPPSDEQLKSGTASVVCLLNNFYPREAKVQWKVDNALQSGNSQESVTEQDSKDSTYSLSSTLTLSKADYEKHKVYACEVTHQGLSSPVTKSFNRGECDKTHTCPPCPAPEAAGGPSVFLFPPKPKDTLMISRTPEVTCVVVDVSHEDPEVKFNWYVDGVEVHNAKTKPREEQYNSTYRVVSVLTVLHQDWLNGKEYKCKVSNKALKAPIEKTISKAKGQPREPQVCTLPPSREEMTKNQVSLSCAVKGFYPSDIAVEWESNGQPENNYKTTPPVLDSDGSFFLVSKLTVDKSRWQQGNVFSCSVMHEALHNHYTQKSLSLSPGK chain 4: EVQLVESGGGLVQPGGSLRLSCAASGFTFDQYYIHWVRQAPGKGLEWVAEIYPAGSYTYYADSVKGRFTISADTSKNTAYLQMNSLRAEDTAVYYCARGPYSVRYALDYWGQGTLVTVSSASTKGPSVFPLAPSSKSTSGGTAALGCLVKDYFPEPVTVSWNSGALTSGVHTFPAVLQSSGLYSLSSVVTVPSSSLGTQTYICNVNHKPSNTKVDKKVEPPKSC | 0.274 nM | 14.7 nM | 0.26 nM | – | – | – | –
3 | C59 x P31.2 bispecific antibody in a BC44 format (bispecific antibody, B-Body of four polypeptide chains, BC44 format; CD47 arm from C59, PD-L1 arm from P31.2; also called C59 × P31.2) chain 1: not shown chain 2: EVQLVESGGGLVQPGGSLRLSCAASGFTFTSYYIHWVRQAPGKGLEWVAYIDSKHGTTQYADSVKGRFTISADTSKNTAYLQMNSLRAEDTAVYYCARGGRSAMDYWGQGTLVTVSSASPREPQVYTLPPCRDELTKNQVSLTCLVKGFYPSDIAVEWESNGQPENNYKTTPPVLDSDGSFFLYSKLTVDKSRWQQGNVFSCSVMHEALHNHYTQKSLSLSPGK chain 3: DIQMTQSPSSLSASVGDRVTITCRASQSVSSAVAWYQQKPGKAPKLLIYSASSLYSGVPSRFSGSRSGTDFTLTISSLQPEDFATYYCQQFGAEPITFGQGTKVEIKRTVAAPSVFIFPPSDEQLKSGTASVVCLLNNFYPREAKVQWKVDNALQSGNSQESVTEQDSKDSTYSLSSTLTLSKADYEKHKVYACEVTHQGLSSPVTKSFNRGECDKTHTCPPCPAPELLGGPSVFLFPPKPKDTLMISRTPEVTCVVVDVSHEDPEVKFNWYVDGVEVHNAKTKPREEQYNSTYRVVSVLTVLHQDWLNGKEYKCKVSNKALPAPIEKTISKAKGQPREPQVCTLPPSREEMTKNQVSLSCAVKGFYPSDIAVEWESNGQPENNYKTTPPVLDSDGSFFLVSKLTVDKSRWQQGNVFSCSVMHEALHNHYTQKSLSLSPGK chain 4: EVQLVESGGGLVQPGGSLRLSCAASGFTFSSYYIHWVRQAPGKGLEWVATISSGGGFTYYADSVKGRFTISADTSKNTAYLQMNSLRAEDTAVYYCARGYTLTPVLDYWGQGTLVTVSSASTKGPSVFPLAPSSKSTSGGTAALGCLVKDYFPEPVTVSWNSGALTSGVHTFPAVLQSSGLYSLSSVVTVPSSSLGTQTYICNVNHKPSNTKVDKKVEPPKSC | 0.0268 nM | 3.7 nM | – | 0.266 nM | 0.256 nM | 2.5 nM | –
4 | C56 x P22 bispecific antibody in a BC44 format (bispecific antibody, B-Body of four polypeptide chains, BC44 format; CD47 arm from C56, PD-L1 arm from P22; also called C56 × P22) chain 1: not shown chain 2: EVQLVESGGGLVQPGGSLRLSCAASGFTFTYYYIHWVRQAPGKGLEWVAFIDPYSGSTEYADSVKGRFTISADTSKNTAYLQMNSLRAEDTAVYYCARGGLYALDYWGQGTLVTVSSASPREPQVYTLPPCRDELTKNQVSLTCLVKGFYPSDIAVEWESNGQPENNYKTTPPVLDSDGSFFLYSKLTVDKSRWQQGNVFSCSVMHEALHNHYTQKSLSLSPGK chain 3: DIQMTQSPSSLSASVGDRVTITCRASQSVSSAVAWYQQKPGKAPKLLIYSASSLYSGVPSRFSGSRSGTDFTLTISSLQPEDFATYYCQQYYTSPYTFGQGTKVEIKRTVAAPSVFIFPPSDEQLKSGTASVVCLLNNFYPREAKVQWKVDNALQSGNSQESVTEQDSKDSTYSLSSTLTLSKADYEKHKVYACEVTHQGLSSPVTKSFNRGECDKTHTCPPCPAPELLGGPSVFLFPPKPKDTLMISRTPEVTCVVVDVSHEDPEVKFNWYVDGVEVHNAKTKPREEQYNSTYRVVSVLTVLHQDWLNGKEYKCKVSNKALPAPIEKTISKAKGQPREPQVCTLPPSREEMTKNQVSLSCAVKGFYPSDIAVEWESNGQPENNYKTTPPVLDSDGSFFLVSKLTVDKSRWQQGNVFSCSVMHEALHNHYTQKSLSLSPGK chain 4: EVQLVESGGGLVQPGGSLRLSCAASGFTFSSYYIHWVRQAPGKGLEWVAWITSHGYSTKYADSVKGRFTISADTSKNTAYLQMNSLRAEDTAVYYCARDSVIYGLDYWGQGTLVTVSSASTKGPSVFPLAPSSKSTSGGTAALGCLVKDYFPEPVTVSWNSGALTSGVHTFPAVLQSSGLYSLSSVVTVPSSSLGTQTYICNVNHKPSNTKVDKKVEPPKSC | 1.99 nM | 3 nM | 1.2 nM | 0.218 nM | 0.218 nM | 1.2 nM | –
5 | antibody designated P24 (antibody, V domains shown, Anti-PD-L1) VH: EVQLVESGGGLVQPGGSLRLSCAASGFTFDQYYIHWVRQAPGKGLEWVAEIYPAGSYTYYADSVKGRFTISADTSKNTAYLQMNSLRAEDTAVYYCARGPYSVRYALDYWGQGTLVT VL: DIQMTQSPSSLSASVGDRVTITCRASQSVSSAVAWYQQKPGKAPKLLIYSASSLYSGVPSRFSGSRSGTDFTLTISSLQPEDFATYYCQQVSYSPYTFGQGTKVEIK | – | – | – | – | – | – | binds
